Results as given in PMC5680780.

Target: recombinant Clonorchis sinensis pyruvate kinase (Clonorchis sinensis)
Assay: native gel or EMSA + SEC; purified rCsPK on 8% native PAGE against marker proteins; gel filtration on a Sepharose 12 10/300 GL column (AKTA FPLC), 0.8 ml/min, 50 mM Tris-HCl, 100 mM KCl, pH 7.5; apparent Mr about 290 kDa against a subunit of about 58 kDa

Q: “recombinant Clonorchis sinensis pyruvate kinase (enzyme)” was tested. Which stoichiometry N did it give?
A: 5
